According to publication PMC3224728, “Identification of target genes of transcription factor activator protein 2 gamma in breast cancer cells”:

How the values were obtained:
GST-AP-2γ [1] = biological target: T1, GST-AP-2γ (UniProt Q92754 1-450); assay: EMSA; 10 mM HEPES pH 8.0, 60 mM KCl, 4 mM MgCl2, 0.1 mM EDTA, 100 μg/ml BSA, 0.25 mM DTT, 10% glycerol, 37°C 20 min; 5 pmol probe, 50 pmol protein in 15 μl; 6% native PAGE; conditions: protein: recombinant; tags: GST (N-terminal, pGEX-4T-2); chain copies: 2; label: 32P 5' end of forward strand; blunt
T1 sequence (Q92754 whole entry): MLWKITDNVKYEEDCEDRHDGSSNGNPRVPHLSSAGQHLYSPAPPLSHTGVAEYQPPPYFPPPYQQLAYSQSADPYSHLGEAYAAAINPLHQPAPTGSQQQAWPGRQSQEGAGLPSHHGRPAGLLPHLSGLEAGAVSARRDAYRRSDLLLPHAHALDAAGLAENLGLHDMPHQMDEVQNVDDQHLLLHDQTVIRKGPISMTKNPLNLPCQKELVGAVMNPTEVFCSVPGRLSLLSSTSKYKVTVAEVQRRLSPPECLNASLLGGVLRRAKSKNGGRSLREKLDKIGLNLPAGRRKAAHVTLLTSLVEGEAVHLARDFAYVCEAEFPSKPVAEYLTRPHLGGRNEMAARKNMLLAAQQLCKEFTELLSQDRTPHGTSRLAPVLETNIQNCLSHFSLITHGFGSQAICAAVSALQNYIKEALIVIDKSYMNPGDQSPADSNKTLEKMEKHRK

GST-AP-2γ [2] = biological target: T1, GST-AP-2γ; assay: competition; 10- or 50-fold excess unlabeled vs wild-type HPSE-648, CDH2-854, IGSF11-286 probes; markedly decreased binding; 10 mM HEPES pH 8.0, 60 mM KCl, 4 mM MgCl2, 0.1 mM EDTA, 100 μg/ml BSA, 0.25 mM DTT, 10% glycerol, 37°C 20 min; 5 pmol probe, 50 pmol protein in 15 μl; 6% native PAGE; conditions: protein: recombinant; tags: GST (N-terminal, pGEX-4T-2); chain copies: 2; blunt

B1: MtR3-36-676/HPSE (dsDNA)
DNA 1: AATGTGATTCTGATCACTTAG
DNA 2: CTAAGTGATCAGAATCACATT
B1: no binding (GST-AP-2γ [1]).

B2: WtR1-15-286/IGSF11 (dsDNA)
DNA 1: TTTGCTGCCTTTGTCCTGTAG
DNA 2: CTACAGGACAAAGGCAGCAAA
B2: binds (GST-AP-2γ [1]).

B3: WtR3-36-676/HPSE (dsDNA)
DNA 1: AATGTGGCCCTGGTCACTTAG
DNA 2: CTAAGTGACCAGGGCCACATT
B3: no binding (GST-AP-2γ [1]).

B4: WtR4-28-854/CDH2 (dsDNA)
DNA 1: ATGCGACCTGCAGGCATGCCA
DNA 2: TGGCATGCCTGCAGGTCGCAT
B4: binds (GST-AP-2γ [1]).

B5: WtR3-36-648/HPSE (dsDNA)
DNA 1: AAAAGTGCCCAGAGCCCATGA
DNA 2: TCATGGGCTCTGGGCACTTTT
B5: binds (GST-AP-2γ [1]).

B6: MtR3-36-648/HPSE (dsDNA)
DNA 1: AAAAGTATTCAGGGCCCATGA
DNA 2: TCATGGGCCCTGAATACTTTT
B6: no binding (GST-AP-2γ [1]).

B7: HMT (dsDNA)
DNA 1: AACGGACCGCCCGCGGCCCGT
DNA 2: ACGGGCCGCGGGCGGTCCGTT
B7: binds (GST-AP-2γ [2]).

B8: MtR1-15-286/IGSF11 (dsDNA)
DNA 1: TTTGCTATTTTTATCCTGTAG
DNA 2: CTACAGGATAAAAATAGCAAA
B8: no binding (GST-AP-2γ [1]).

B9: MtR4-28-854/CDH2 (dsDNA)
DNA 1: ATGCGACCCGCAAATATGCCA
DNA 2: TGGCATATTTGCGGGTCGCAT
B9: no binding (GST-AP-2γ [1]).
